This is an account of results in publication PMC3472128 (Structure (London, England : 1993), 2012).

Values joined by “and” are separate entries in the source; they are usually repeats but may differ in a detail not shown here. Identical values can stand only once.

The labels stand for the following.
T1: Smad7 PY peptide Ac-ELESPPPPYSRYPMD-NH2 (203-217) (human)
T1 peptide: Ac-ELESPPPPYSRYPMD-NH2

B1: Smurf1 WW1-WW2 pair (domain or fragment)
chain: SPELPEGYEQRTTVQGQVYFLHTQTGVSTWHDPRIPRDLNSVNCDELGPLPPGWEVRSTVSGRIYFVDHNNRTTQFTDPRLH
B2: Smurf2 WW2-WW3 pair (domain or fragment)
chain: PPDLPEGYEQRTTQQGQVYFLHTQTGVSTWHDPRVPRDLSNINCEELGPLPPGWEIRNTATGRVYFVDHNNRTTQFTDPRLSAN
B3: Smurf1 WW1-WW2 pair Gln247 and Gln249 to Glu (domain or fragment)
chain: SPELPEGYEQRTTVEGEVYFLHTQTGVSTWHDPRIPRDLNSVNCDELGPLPPGWEVRSTVSGRIYFVDHNNRTTQFTDPRLH
B4: Smurf1 WW1-WW2 pair Arg243Glu (domain or fragment)
chain: SPELPEGYEQETTVQGQVYFLHTQTGVSTWHDPRIPRDLNSVNCDELGPLPPGWEVRSTVSGRIYFVDHNNRTTQFTDPRLH
B5: Smurf1 WW1-WW2 pair Arg243Ala (domain or fragment)
chain: SPELPEGYEQATTVQGQVYFLHTQTGVSTWHDPRIPRDLNSVNCDELGPLPPGWEVRSTVSGRIYFVDHNNRTTQFTDPRLH
B6: Smurf1 WW1-WW2 pair Gln249Glu (domain or fragment)
chain: SPELPEGYEQRTTVQGEVYFLHTQTGVSTWHDPRIPRDLNSVNCDELGPLPPGWEVRSTVSGRIYFVDHNNRTTQFTDPRLH
B7: Nedd4L WW2 domain Arg380Glu (domain or fragment)
chain: not shown
B8: Nedd4L WW2 domain Lys378Glu (domain or fragment)
chain: not shown
B9: Nedd4L WW2 domain Lys378/Arg380 to Glu (domain or fragment)
chain: not shown
B10: Smurf2 WW3 domain (297-333) (domain or fragment)
chain: not shown
B11: Nedd4L WW2-WW3 pair (domain or fragment)
chain: TPGLPSGWEERKDAKGRTYYVNHNNRTTTWTRPIMQLAEDGASGSATNSNNHLIEPQIRRPRSLSSPTVTLSAPLEGAKDSPVRRAVKDTLSNPQSPQPSPYNSPKPQHKVTQSFLPPGWEMRIAPNGRPFFIDHNTKTTTWEDPRL
B12: Nedd4L WW1-WW2 pair (domain or fragment)
chain: not shown
B13: Nedd4L WW2 domain (364-403) (domain or fragment)
chain: not shown
B14: Nedd4L WW3-WW4 pair (domain or fragment)
chain: SFLPPGWEMRIAPNGRPFFIDHNTKTTTWEDPRLKFPVHMRSKTSLNPNDLGPLPPGWEERIHLDGRTFYIDHNSKITQWEDPRL
B15: YAP WW1-WW2 pair (domain or fragment)
chain: SSFEIPDDVPLPAGWEMAKTSSGQRYFLNHIDQTTTWQDPRKAMLSQMNVTAPTSPPVQQNMMNSASGPLPDGWEQAMTQDGEIYYINHKNKTTSWLDPRLDPR
B16: Nedd4L WW1 domain (domain or fragment)
chain: not shown

The target in the first data set is T1, Smad7 PY peptide Ac-ELESPPPPYSRYPMD-NH2 …. The data set is described as follows: ITC.
B1 came in with a Kd of 0.7 ± 0.3 µM. The molecule B2 returned a Kd of 0.7 ± 0.3 µM.

For a further data set the target is unchanged. As to the kind of experiment: ITC. This is another data set of the same source.
B1 came in with a Kd of 5 ± 0.3 µM. B2: the Kd was found to be 5 ± 0.3 µM.

The target is the same in another data set. As to the kind of experiment: ITC. The source holds these as a separate data set.
As for SSFEIPDDVPLPAGWEMAKTSSGERYFLNHIDQTTTWQDPRKAM (domain or fragment, human, UniProt P46937 163-206, looked up) [YAP WW1 domain Q186E], the “fold reduction of affinity against wild-type YAP WW1” value was determined as 2 fold. DELGPLPPGWEVRSTVSGEIYFVDHNNRTTQFTDPRLH (domain or fragment, human, UniProt Q9HCE7-2 277-314, looked up) [Smurf1 WW2 domain Arg295Glu]: binding was characterised by a dissociation constant (Kd) of 48.6 ± 6.4 µM. The molecule GPLPPGWEIRNTATGEVYFVDHNNRTTQFTDPRLSAN (domain or fragment, human, UniProt Q9HAU4 297-333, looked up) [Smurf2 WW3 domain R312E] registered a Kd of 34.2 ± 1.6 µM.

In the case of B3, the “fold reduction of affinity against the wild-type WW1-WW2 pair” value is 3 fold. For the molecule B4, the “fold reduction of affinity against the wild-type WW1-WW2 pair” value came to 10 fold. With B5, the “fold reduction of affinity against the wild-type WW1-WW2 pair” value is 3 fold. Consider B6, for which the “fold reduction of affinity against the wild-type WW1-WW2 pair” value was 3 fold. As to SASGPLPDGWEQAMTQQGQIYYINHKNKTTSWLDPRLDPR (domain or fragment, human, UniProt P46937 227-266, looked up) [YAP WW2 domain Asp243 and Glu245 to Glutamine], the “fold improvement of affinity against wild-type YAP WW2” value was 2 fold.

Molecule B7 came in with a Kd of 15.4 ± 3.5 µM. B8 registered a Kd of 23.5 ± 1.5 µM. As to B9, the affinity, expressed as Kd, was 27.3 ± 2.2 µM.

Another data set concerns the molecule itself. As to the kind of experiment: native MS.
On to B2, for which the “stoichiometry N” value is 2 and 3.

The next data set deals with the molecule itself. As to the kind of experiment: NMR.
SPELPEGYEQRTTVQGQVYFLHTQTGVSTWHDPRIPRD (domain or fragment, human, UniProt Q9HCE7-2 233-270, looked up) [Smurf1 WW1 domain (residues 233-270)]: the “stoichiometry N” value stood at 2.

In the next data set the target is T1, Smad7 PY peptide Ac-ELESPPPPYSRYPMD-NH2 …. The data set is described as follows: ITC. The source holds these as a separate data set.
SSFEIPDDVPLPAGWEMAKTSSGQRYFLNHIDQTTTWQDPRKAM (domain or fragment, human, UniProt P46937 163-206, looked up) [YAP WW1 domain (residues 163-206)] showed a Kd of 6.9 ± 0.28 µM.

Regarding GPLPPGWEERIHLDGRTFYIDHNSKITQWEDPRL (domain or fragment) [Nedd4L WW4 domain], the “stoichiometry N” value is 1.

On to DELGPLPPGWEVRSTVSGRIYFVDHNNRTTQFTDPRLH (domain or fragment, human, UniProt Q9HCE7-2 277-314, looked up) [Smurf1 WW2 domain (residues 277-314)], for which the affinity, expressed as Kd, was 4.1 ± 0.6 µM and the “stoichiometry N” value came out at 1.

Turning to B10, the affinity, expressed as Kd, was 4.1 µM and the “stoichiometry N” value turned out to be 1. B1: the Kd was determined as 1.7 ± 0.3 µM and the “stoichiometry N” value is 0.7. As for B11, the “stoichiometry N” value is 2 equivalents of peptide per protein.

In the case of B12, the “stoichiometry N” value turned out to be 1. Regarding B2, the Kd turned out to be 1.7 ± 0.3 µM.

For the molecule SASGPLPDGWEQAMTQDGEIYYINHKNKTTSWLDPRLDPR (domain or fragment, human, UniProt P46937 227-266, looked up) [YAP WW2 domain (residues 227-266)], the “fold weaker dissociation constant than YAP WW1” value was found to be 9 fold. With B13, the “stoichiometry N” value was 1. For SFLPPGWEMRIAPNGRPFFIDHNTKTTTWEDPRL (domain or fragment) [Nedd4L WW3 domain], the “stoichiometry N” value was 1. Regarding B14, the “stoichiometry N” value was 1. Take B15: the Kd worked out at 9.8 ± 0.9 µM and the “stoichiometry N” value was found to be 1.

Regarding B16, the “stoichiometry N” value is 1.
